Results from the supplement of paper PMC9112550, “Optimization of the antimicrobial peptide Bac7 by deep mutational scanning” (BMC Biology, 2022).

Test system: Escherichia coli TOP10
Assay: shrunken log2 fold change of peptide-encoding DNA abundance (4.5 h post-induction vs induction); higher = less antimicrobial activity (less host growth inhibition)
Details: time post-induction: 4.5 h; library: site-saturation at positions 5, 18, 19, 20
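Also: peptides expressed intracellularly from a pBAD plasmid library in pooled LB shake-flask culture, induced with 0.3% L-arabinose, DNA abundance read by NGS, three biological replicates, DESeq2 with apeglm shrinkage.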

| Sequence | shrunken log2 fold change |
| --- | --- |
| RRIRKRPPRLPRPRPRPLGCPRP | 0.659 |
| RRIRDRPPRLPRPRPRPTHCPRP | 0.0452 |
| RRIRLRPPRLPRPRPRPAWLPRP | 0.229 |
| RRIRRRPPRLPRPRPRPTLLPRP | 0.465 |
| RRIRERPPRLPRPRPRPKFTPRP | -0.147 |
| RRIRARPPRLPRPRPRPAYMPRP | -0.64 |
| RRIRTRPPRLPRPRPRPVDYPRP | -0.172 |
| RRIRPRPPRLPRPRPRPRGWPRP | 1.12 |
| RRIRARPPRLPRPRPRPNMPPRP | -0.0377 |
| RRIRQRPPRLPRPRPRPHHIPRP | -0.764 |
| RRIRDRPPRLPRPRPRPIMLPRP | -0.0957 |
| RRIRGRPPRLPRPRPRPVTYPRP | -0.13 |
| RRIRHRPPRLPRPRPRPTVKPRP | -0.255 |
| RRIRQRPPRLPRPRPRPMCEPRP | -0.00149 |
| RRIRIRPPRLPRPRPRPSWYPRP | -0.604 |
| RRIRFRPPRLPRPRPRPVANPRP | -0.1 |
| RRIRTRPPRLPRPRPRPQWRPRP | 0.207 |
| RRIRQRPPRLPRPRPRPWMSPRP | -0.0167 |
| RRIRTRPPRLPRPRPRPEYPPRP | -0.449 |
| RRIRIRPPRLPRPRPRPMWMPRP | -0.0849 |
| RRIRMRPPRLPRPRPRPGSAPRP | 1.4 |
| RRIRERPPRLPRPRPRPPTAPRP | 0.0872 |
| RRIRKRPPRLPRPRPRPFKRPRP | -0.00663 |
| RRIRFRPPRLPRPRPRPSYLPRP | -0.736 |
| RRIRNRPPRLPRPRPRPARYPRP | 0.0763 |

| Sequence | shrunken log2 fold change |
| --- | --- |
| RRIRQRPPRLPRPRPRPACSPRP | 0.125 |
| RRIRCRPPRLPRPRPRPNNWPRP | -0.362 |
| RRIRVRPPRLPRPRPRPQNHPRP | -0.608 |
| RRIRERPPRLPRPRPRPNGLPRP | -0.0319 |
| RRIRMRPPRLPRPRPRPNIDPRP | -0.764 |
| RRIRRRPPRLPRPRPRPWPDPRP | 0.0719 |
| RRIRWRPPRLPRPRPRPAYDPRP | 0.126 |
| RRIRCRPPRLPRPRPRPIALPRP | -0.102 |
| RRIRKRPPRLPRPRPRPGASPRP | 0.787 |
| RRIRKRPPRLPRPRPRPWCLPRP | -0.503 |
| RRIRVRPPRLPRPRPRPQTEPRP | -0.134 |
| RRIRGRPPRLPRPRPRPHVCPRP | 0.359 |
| RRIRQRPPRLPRPRPRPNRFPRP | -0.00894 |
| RRIRRRPPRLPRPRPRPNERPRP | -0.0664 |
| RRIRNRPPRLPRPRPRPQLDPRP | 0.112 |
| RRIRTRPPRLPRPRPRPRDTPRP | -0.0276 |
| RRIRDRPPRLPRPRPRPGLRPRP | 0.277 |
| RRIRPRPPRLPRPRPRPTQDPRP | 0.833 |
| RRIRARPPRLPRPRPRPKMMPRP | 0.105 |
| RRIRPRPPRLPRPRPRPKKPPRP | 0.0432 |
| RRIRWRPPRLPRPRPRPNAKPRP | 0.188 |
| RRIRARPPRLPRPRPRPMAMPRP | 0.282 |
| RRIRDRPPRLPRPRPRPRRMPRP | -0.152 |
| RRIRVRPPRLPRPRPRPRRPPRP | 0.34 |
| RRIRFRPPRLPRPRPRPYKAPRP | -0.153 |

| Sequence | shrunken log2 fold change |
| --- | --- |
| RRIRNRPPRLPRPRPRPAPVPRP | 0.406 |
| RRIRQRPPRLPRPRPRPDNRPRP | -0.00104 |
| RRIRCRPPRLPRPRPRPKAFPRP | -0.0921 |
| RRIRCRPPRLPRPRPRPQDRPRP | -0.175 |
| RRIRKRPPRLPRPRPRPRKIPRP | 0.968 |
| RRIRYRPPRLPRPRPRPETKPRP | -0.485 |
| RRIRTRPPRLPRPRPRPIAGPRP | -0.16 |
| RRIRIRPPRLPRPRPRPCNQPRP | -0.297 |
| RRIRGRPPRLPRPRPRPFGNPRP | 0.0288 |
| RRIRIRPPRLPRPRPRPDVMPRP | -0.17 |
| RRIRDRPPRLPRPRPRPSHFPRP | -0.0338 |
| RRIRQRPPRLPRPRPRPAIYPRP | -0.0621 |
| RRIRGRPPRLPRPRPRPCETPRP | 0.496 |
| RRIRWRPPRLPRPRPRPYDCPRP | 0.00333 |
| RRIRGRPPRLPRPRPRPWLSPRP | -0.0504 |
| RRIRPRPPRLPRPRPRPKELPRP | 0.0936 |
| RRIRYRPPRLPRPRPRPFELPRP | -0.529 |
| RRIRDRPPRLPRPRPRPAKGPRP | -0.0222 |
| RRIRLRPPRLPRPRPRPMGTPRP | -0.0465 |
| RRIRQRPPRLPRPRPRPQRIPRP | -0.226 |
| RRIRQRPPRLPRPRPRPCGEPRP | -0.0396 |
| RRIRGRPPRLPRPRPRPCPIPRP | -0.0298 |
| RRIRMRPPRLPRPRPRPHNEPRP | -0.356 |
| RRIRLRPPRLPRPRPRPWGTPRP | -0.169 |
| RRIRFRPPRLPRPRPRPNNKPRP | -0.646 |

| Sequence | shrunken log2 fold change |
| --- | --- |
| RRIRMRPPRLPRPRPRPSTFPRP | 0.147 |
| RRIRHRPPRLPRPRPRPYHIPRP | -0.045 |
| RRIRCRPPRLPRPRPRPQNLPRP | -0.49 |
| RRIRGRPPRLPRPRPRPDFAPRP | 0.724 |
| RRIRERPPRLPRPRPRPVIQPRP | 0.0166 |
| RRIRNRPPRLPRPRPRPVLTPRP | -0.235 |
| RRIRVRPPRLPRPRPRPNEQPRP | -0.232 |
| RRIRHRPPRLPRPRPRPWLNPRP | -0.0017 |
| RRIRPRPPRLPRPRPRPDIDPRP | -0.144 |
| RRIRARPPRLPRPRPRPHAQPRP | 0.122 |
| RRIRCRPPRLPRPRPRPQMFPRP | -0.155 |
| RRIRFRPPRLPRPRPRPRKDPRP | -0.302 |
| RRIRARPPRLPRPRPRPRNLPRP | -0.0356 |
| RRIRGRPPRLPRPRPRPQGRPRP | 0.553 |
| RRIRARPPRLPRPRPRPDSAPRP | 0.608 |
| RRIRMRPPRLPRPRPRPWHWPRP | 0.0862 |
| RRIRQRPPRLPRPRPRPEKGPRP | -0.017 |
| RRIRWRPPRLPRPRPRPPDCPRP | -0.259 |
| RRIRIRPPRLPRPRPRPDKVPRP | -0.043 |
| RRIRWRPPRLPRPRPRPSEEPRP | 0.129 |
| RRIRMRPPRLPRPRPRPKTWPRP | 0.602 |
| RRIRSRPPRLPRPRPRPWQSPRP | 0.143 |
| RRIRHRPPRLPRPRPRPWGEPRP | -0.0132 |
| RRIRRRPPRLPRPRPRPNSIPRP | -0.236 |
| RRIRDRPPRLPRPRPRPPEWPRP | 0.557 |

| Sequence | shrunken log2 fold change |
| --- | --- |
| RRIRYRPPRLPRPRPRPNEAPRP | -0.017 |
| RRIRRRPPRLPRPRPRPPLTPRP | 0.841 |
| RRIRWRPPRLPRPRPRPQVNPRP | 0.141 |
| RRIRPRPPRLPRPRPRPDTPPRP | 0.0412 |
| RRIRSRPPRLPRPRPRPREAPRP | 0.587 |
| RRIRTRPPRLPRPRPRPDEPPRP | -0.105 |
| RRIRERPPRLPRPRPRPASKPRP | -0.12 |
| RRIRRRPPRLPRPRPRPKPPPRP | 0.735 |
| RRIRVRPPRLPRPRPRPFYEPRP | -0.453 |
| RRIRDRPPRLPRPRPRPIFHPRP | -0.158 |
| RRIRERPPRLPRPRPRPYRNPRP | -0.166 |
| RRIRYRPPRLPRPRPRPARLPRP | -0.0429 |
| RRIRRRPPRLPRPRPRPFMGPRP | -0.366 |
| RRIRPRPPRLPRPRPRPDCDPRP | 0.0888 |
| RRIRHRPPRLPRPRPRPSLTPRP | 0.0616 |
| RRIRKRPPRLPRPRPRPQAAPRP | 0.451 |
| RRIRARPPRLPRPRPRPPWMPRP | 0.463 |
| RRIRTRPPRLPRPRPRPWKEPRP | -0.0407 |
| RRIRYRPPRLPRPRPRPHSWPRP | -0.69 |
| RRIRYRPPRLPRPRPRPITRPRP | 0.0448 |
| RRIRQRPPRLPRPRPRPQEEPRP | -0.0176 |
| RRIRHRPPRLPRPRPRPAAGPRP | 0.323 |
| RRIRCRPPRLPRPRPRPDPKPRP | 0.0617 |
| RRIRPRPPRLPRPRPRPKATPRP | 0.463 |
| RRIRKRPPRLPRPRPRPNRRPRP | 0.0646 |

| Sequence | shrunken log2 fold change |
| --- | --- |
| RRIRCRPPRLPRPRPRPYLTPRP | -0.459 |
| RRIRDRPPRLPRPRPRPWLPPRP | 0.0708 |
| RRIRGRPPRLPRPRPRPRVSPRP | 0.45 |
| RRIRTRPPRLPRPRPRPWHAPRP | 0.093 |
| RRIRYRPPRLPRPRPRPWRRPRP | -0.104 |
| RRIRSRPPRLPRPRPRPEEWPRP | -0.0481 |
| RRIRERPPRLPRPRPRPECSPRP | -0.0948 |
| RRIRKRPPRLPRPRPRPSEMPRP | -0.17 |
| RRIRQRPPRLPRPRPRPHRIPRP | -0.0425 |
| RRIRERPPRLPRPRPRPHWRPRP | 0.198 |
| RRIRPRPPRLPRPRPRPVLVPRP | 0.0376 |
| RRIRDRPPRLPRPRPRPMAPPRP | 0.982 |
| RRIRPRPPRLPRPRPRPMHRPRP | 0.0978 |
| RRIRLRPPRLPRPRPRPAHTPRP | 0.0258 |
| RRIRFRPPRLPRPRPRPTGAPRP | 0.257 |
| RRIRYRPPRLPRPRPRPAVDPRP | -0.0338 |
| RRIRRRPPRLPRPRPRPDNFPRP | 0.028 |
| RRIRFRPPRLPRPRPRPNPFPRP | 0.0605 |
| RRIRVRPPRLPRPRPRPHVFPRP | -0.0624 |
| RRIRRRPPRLPRPRPRPGKAPRP | 0.112 |
| RRIRRRPPRLPRPRPRPQHGPRP | 0.198 |
| RRIRPRPPRLPRPRPRPAKEPRP | 0.0354 |
| RRIRTRPPRLPRPRPRPMSKPRP | -0.0499 |
| RRIRCRPPRLPRPRPRPRPNPRP | 0.478 |
| RRIRCRPPRLPRPRPRPFHYPRP | -2.22e-05 |
